A short description of the data set: soluble fraction after stress (log2 fold change); higher = more stays soluble; pooled small domains, quantitative proteomics. As to conditions: stress: 50 degC. In short, it runs like this:
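Each library was heated to 50°C as a stress step. The libraries, made up of small protein domains, were pooled and analysed at high throughput by quantitative proteomics. The reported value is the base-two logarithm of the fold change in each protein's soluble amount after stress, taken as a measure of aggregation propensity. The higher the value, the more protein stays in solution.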

The values that follow come from the domain aggregation screens of Martell et al. (2025).

Turning to “HMEVEIPSREALLGLVQKHLKPVSFDEFVSHFKLGDERQQVGIKRRLRAMERDGQLVYTKANSYGLPDRM”, the “soluble fraction (log2)” value is 0.194.
To “HMTDLNDTQIKILELLSADASLSAAKMAGQLGIAGRNVEANIKKLKEKGILIRHGSPKSGYWEIVN” belongs -0.0982.
Consider “HMVAISNTSGLAGVAYWIQSNIPKGIDIRKDNPGIVTIKNWIDEEYRKGRTTTISEEEMFKLVREYMPEL”, for which the “soluble fraction (log2)” value was -1.77.
For “HMSDIYSLFERELGRTLSSYEYEIIGKWIEKGVSEDTIKRALKEAILNGVTNFKYIDKIIYDWSKN” the value was -0.499.
For “HMSVDAMDEANERKMAKTFNMIVLGGLLKIRPIVSIESVIKALRKTLPERHHHLIPMNEEAIHIGMDII” the value was 0.0597.
To “HMESYWVVLRPMAAGTQIGANDLGYRSVALGAAAKNYLAASTNPIGSITRRRLVAGELLQGSSLTDDARA” belongs -0.873; to “HMPGVLEVDTGGVAAVAYVDGVEVGRVPGELQIAAGTKTLMLKADRYLDYVQSLEIDGLGKRQLLVATLQS”, -0.25.
On to “HMLKQLGRQEGRQEGAVDALRTVLALQIEQRFGPLDPTVQALIVAADIDALQRALSRVAVVSDLGAVFPP”, for which the “soluble fraction (log2)” value is -0.238.
For “HMQVLSESDVEDIKAISGGDKAYDNLMEWAGSKLSKQDAKDYDDVLATGNKTAITFAVKALMAQYENAN” the value was -0.299.
To “HMSGPFTELTPREREILSHLAEGQSNKVIARHLQISDGTVKLHVKAILRKLEVHSRVEAAVMAVEHGV” belongs -1.96; to “HMKRRSLQVGDIVQVRSLNVKGEVVSIGKNEVVVAVGRLQMRAGFDDLDFKERPKEEREVESV”, -0.143.
As for “HMGYQLSLEAQSQLKALGLTSEYITRILDEADNRQPIPGTSRTVYSLNGYQVEFSHSDQQVIRIARG”, the “soluble fraction (log2)” value is 0.0139.
Turning to “HMTIRIPEEEYLTRAKRAAQMTAERGLDALFLFGSEGDFQNVRYFTSVTPIWERLGVVITASGKAAMLTGP”, the “soluble fraction (log2)” value was -0.0521.
On to “HMSTNDIFISGDKLVLKNTTGQMDVFDMAGRKVLSSTNNVSEMNVSSLPKGVYVVSASIGGSKMKAKVYK”, for which the “soluble fraction (log2)” value was 0.527.
Regarding “HMDTIRINSGSTVKEVAEYLGIPVPEVIKKLMSMGELATLTKTLSDDHIEVLAEEFEKKIKIVHVGEEAD”, the “soluble fraction (log2)” value was 0.0343.
Regarding “HMPEKNQITHLIRLIDDRDEFVRKRVREQLIKLGEDAIPFLEMAAKTENLEIQRIASEIIQAIIPRQ”, the “soluble fraction (log2)” value is -0.13.
“HMIKRNPLDEIEGVGPGRKKALLHAFGSAKGVSRASVVDLVKVEGVSQALAERIHDFFHPATR”: the “soluble fraction (log2)” value was -0.113.
To “HMQQFGANVRLIRKARQMSIKQLSELSGVSQTMISEVERGLKIPTIDVAGKIAAALGIDLTNLMG” belongs -0.465.
To “HMGTNTTGWIKIADDWKYIDSNGEYTVNDWRQSADGGWYYLGYNGNMLKNQTTPDGYYVDAEGLWDGMSPA” belongs -0.709; to “HMAMTRTEYLNQLKHYLKRLPHTDYEEAMDYFKEYFEEAGPENEAQVIQDLGNPKEAAYEILSQLL”, -0.253.
Turning to “HMEDLGYVKVASQTAAIRKSAAVQAGQIGTVHEGETYRYLGEEEGWYLVEYNGQKAYISWDDGEL”, the “soluble fraction (log2)” value was -0.119.
Turning to “HMQEAATSLNAKILAKLRENNGTLAVSDKSDPALISSLFGVSKGNFKKAIGALYKNGQIVIHADRIEL”, the “soluble fraction (log2)” value is -0.436.
Regarding “HMVGEYTVKKGDTLWKIAGQTLGSPLRYAEIYELNKDVIEEAALGRGKKNSSNGHWIFQGTVLKIPA”, the “soluble fraction (log2)” value was -0.00974.
“HMSKISKENEQQVIQIVQTLLLNVQDKSLITTQILNEKINLAVSLDTKYKENLDRDYIIEELIRRYSVW”: the “soluble fraction (log2)” value is -1.12.
For “HMKYNGDRPVFNDDVAWAKWMLENPAKITSHDKENLSSMLKKPEVVMLFEAEDLSVPDLRTLAKE”, the “soluble fraction (log2)” value turned out to be 0.236.
In the case of “HMNDSGIIGVVINDHEKYEGHVLEDGFISSSLSALSREIDVAGYFMMVKTVVYEGFFQELKGIGNV”, the “soluble fraction (log2)” value is -0.00726.
With “HMNFGEVLQTKRKSMGLTQEDLADKLFVSSETISNWETNKTTPDIDNVIRISQLFDISLNNLLL”, the “soluble fraction (log2)” value was -0.0758.
For “HMGNGDTNERIATLMQILAKQESIINQYGLENPVVSPQMYVRTLKKVVELSGFKDASSYFADIPDGWKA” the value was -0.00533.
Regarding “HMQQNYREMHKVKKGETLFGIARRYEITVDQLIKANPDMNAVGYELKKGDYIFIPYPDGQKP”, the “soluble fraction (log2)” value is -0.13.
For “HMTYTMVAYGSQGDAVRQLQSELNRHGYQLDEDGVFGKKTRAAVRDYQKKNSLRLDGIAGDETWGSLLA” the value was 0.324.
On to “HMVELGMSQNEFIQKFGKPFNKEMAYTYDKHKRETLFYKEDLYRGSWFIVTTAFTFVDSKLVSQEIVREER”, for which the “soluble fraction (log2)” value was -3.41.
To “HMAHSDEAWSVARRVARELDKILDGAGPRRTALVRAAAELRLSTRQIYNLLARYRADRTVTSLLPRR” belongs -0.316; to “HMGVAFAPVEKIKHTKTGNELYAVKLAGRVEAEVFGQLRQKAKEYDGYYSKFSRAFLFSTPEDAEAFRAE”, 0.0208; to “HMKQESSEDLLNEVIDKVIDSNPDEKNRLLDGELKLVSFFMGQVMKETKGKANPGVINGLIKKKFNI”, -0.675.
To “HMAVQEDAGLAREDLPPEVQGLLQEREAARAAKDWGKSDALRRQLQDLGYAIKDTAQGMEIKRT” belongs 0.425; to “HMQDYYTQSDFARYLEDKGIHFPQNKIAVYRKRGKFPKEDLVVAGTPYWSKYTVESFAKHLLEQQN”, 0.0719.
In the case of “HMEPPAPAPDIPYPSRVTVRREVDGWPHYYGTWTRTPPVLGYEGIWLVGVSLDGKVQFVPVDDVTIA”, the “soluble fraction (log2)” value is -0.627.
Regarding “HMQWLDSIRSRLRVGQTISYFEPRENASSSGLIIELRRKRVLVLEIATQKRWLIEYAAINVDG”, the “soluble fraction (log2)” value was -0.373.
As for “HMNSNSLSFSKFMQEVEAGRVIEVQIKGNDIQGELSDGSKFKTYSPNYPNLVDKLSENKVSIVATPL”, the “soluble fraction (log2)” value turned out to be 0.038.
For “HMVSFSIDEALVSAVKGPRSANVMSIQRQFLVRLSVERDGRVTITGANSKSVQQAREAVEAAVEEAKLHP”, the “soluble fraction (log2)” value was -0.827.
To “HMFWVESDVDFVDKTSAHNAIKENERVIGMYISYRLNGTWTTEQYVGIDTSKDNWENPDNWNIL” belongs -0.308; to “HMRSQLALVVRTGESQRLDNFLVNNLAWKSRNRLQGLIREGLVTVNGEKTKASRRVHLDDLVEIHL”, -1.25; to “HMRPYAYGTGRRKSSTARVHLIPNGSGSITINGRTLDEYFGLETLKLIVRQPLAATETAEKFDVEATVV”, -0.415.
To “HMTTIAQNISNYRTRANMTQQQVADKLSVSHHTVSKWELGINTPSVEDMQKLAQVFGVTITELVVD” belongs -0.239.
In the case of “HMAQSTALVNLAQAEINKRGLTQTEVQARLSEEGINVNSISPAEYPKYQKQILSILDQMQKEKQLSKEV”, the “soluble fraction (log2)” value came out at 0.412.
As to “HMELSAQEIGRRLRIARENADIRQDDAAQVIGMSRPTLVSIEKGVRRVRIQEIQMLARHYGVSVNALLR”, the “soluble fraction (log2)” value is -2.14.
In the case of “HMPTLSKVGSQGEEVRQIQTKLKNWGYLNDRVDGIYGPKTRDAVIWFQKKNGLVADGIAGPATLKAMGIFT”, the “soluble fraction (log2)” value stood at 0.0925.
For “HMHLTRYQYKVETEQEAVGLKELSSVHDLQIKENEATFQADSDAIDEILKTLLLYGVKKLEATPPTLED” the value was -0.0366; for “HMDREQLELYVGEVRVLQVGELRRIAIGNGKVLQASALDRGQLLLIPEAPGQSVLYLWTRDGTERHLSISV”, -0.203; for “HMFELDELDLVILKNLANGLSKKQIRVKLKKMDLRPNSESAIDKRVSKLFDEFGAKNSTELVAKLIREGL”, -2.55.
In the case of “HMAPQQARAAKTRVKLLDAAATVVRRDGIQAMTLARVAEEAGVSKGGLLHHFGSKEELVTGMLEQ”, the “soluble fraction (log2)” value is -0.152.
For “HMNADKEALIAAAYRNSLIENFGTENVERYEERFNKWADKHDRQGMPMYPTIEKWMNEDNIA” the value was 0.111; for “HMNREYELTAEESGQRLDKYLAGEMTDLSRSRIKELVQAGEILVNGKKSKVSYKVQKDDLIQVIVLPLE”, -0.285.
For “HMDAGLAEIIRSFEDNLGGFPPAAREDLLGWREIFTDDLILLAIKKAALAGVRKWSYVNGILKVWKNEGVR” the value was -0.742.
“HMLPGWMETKFTANVSENTKNRTLEEHVLKMLNNKESAAEFIIFLHEKMMSVSGQVFQLDSR”: the “soluble fraction (log2)” value stood at 0.149.
To “HMASIATLTVKALGGASDVVIRDKDGRIIWADRLPAGQSHRVFGHAPFNVAASHASRVQLSLLGKDVGRV” belongs -0.719; to “HMDHFLRRFQVEGLNLEKLLRLAAEREMDLLQVRRSGRRMTGLVAEKRLPELEELAAQGGWALRLGEY”, -0.268.
For “HMGEAAIYRINILINNLNVRSGPGTLYPRLRRADFPGEYDIFEEKNGFGRISNTKSEWVSLNTQYVQRLT” the value was -0.549.
With “HMSSTSTMTVAEATIGRKVKHDKFGEGTIITVADVNGDKKLTIAFNQQGVKMLMLSMAKLEL”, the “soluble fraction (log2)” value is -1.03.
For “HMTIRPEDVELVPAEDGYMQGDVVSNIFKGVHYELEVKANGYDWMVHTTKYVEVGSHVGIKVIPFNIQV” the value was -0.0208.
For “HMAQLKYEQIKSYLQAEAVKPESATRMPTVRELMRRFNVSLVTVNRALSELEHAKVIVRRQGAGIVAAQ” the value was -0.703; for “HMVVMEIGANGSEVVKLQKRLNQLGYYTEHASGVYDVKTASAVNEFQRQNELNATGKADYTTLDMIYNQ”, 0.02; for “HMNKYNNIEDLKEEDFENISEKYQVPVSFVKSKLDDLINWHEKNPQKNHYKNYLSALRDWVKRDSLKIKL”, 0.0328.
For “HMGGASVTDQQIRDFVSAHTDDPMAIYKAAVANGISSARLAQVTGISIADIEAFVRKNNLPSF” the value was 0.0932; for “HMAFIEADIGKRIKSLRNKKRITLESLAAETGFTKGYLSKVETSEKAPPVSTLGSIARALGVSISTLLGE”, -0.224.
Regarding “HMGIPIEAYHESLHRHYIDLWELLDTGKETLIDAEGNEVDKIHLLNAIRFNVNGMLHELLKE”, the “soluble fraction (log2)” value is -1.76.
Take “HMSDFDPTLILDLIKGSGEALTKREIARALGIKGGDKRIELKSHLKSMEAEGVIVKQAGGAYSVP”: the “soluble fraction (log2)” value is -0.122.
To “HMDAQNLQDQLFGFLKANPTQAYPAQTLADGLRLDDANAFTKVVQALAALERGGKVKVNEEGAFQYDAEK” belongs 0.0478.
